In PMC6509496, “Crystal structure of the TreS:Pep2 complex, initiating α-glucan synthesis in the GlgE pathway of mycobacteria” (The Journal of Biological Chemistry, 2019):

T1: Mycobacterium smegmatis trehalose synthase (TreS) (M. smegmatis, UniProt A0R6E0 1-593)
T1 construct: Trehalose synthase TreS of M. smegmatis (MSMEG_6515), cloned from genomic DNA with primers from the start codon to the stop codon; concentrations in the ITC count on the monomer; also called Msm TreS; MsTreS; source: E. coli BL21 (DE3), purified (Ni-NTA, HiTrap Q, Sephacryl S-300HR)
T1 sequence (looked up): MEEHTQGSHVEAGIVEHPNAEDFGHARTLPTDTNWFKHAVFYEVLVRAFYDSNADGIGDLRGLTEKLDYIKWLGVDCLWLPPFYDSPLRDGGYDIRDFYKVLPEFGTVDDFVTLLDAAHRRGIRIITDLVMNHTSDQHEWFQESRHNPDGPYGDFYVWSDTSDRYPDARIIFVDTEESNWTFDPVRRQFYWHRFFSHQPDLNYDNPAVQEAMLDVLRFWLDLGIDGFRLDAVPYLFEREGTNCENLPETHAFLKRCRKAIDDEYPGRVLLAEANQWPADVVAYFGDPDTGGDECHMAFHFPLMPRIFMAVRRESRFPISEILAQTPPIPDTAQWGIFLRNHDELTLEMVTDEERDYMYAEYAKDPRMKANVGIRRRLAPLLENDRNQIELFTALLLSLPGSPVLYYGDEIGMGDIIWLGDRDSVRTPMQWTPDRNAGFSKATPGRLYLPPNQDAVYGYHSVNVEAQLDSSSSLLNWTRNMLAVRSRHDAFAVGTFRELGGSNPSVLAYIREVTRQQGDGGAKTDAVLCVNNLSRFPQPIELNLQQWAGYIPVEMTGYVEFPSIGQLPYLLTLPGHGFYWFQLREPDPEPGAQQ

B1: Mycobacterium smegmatis maltokinase (Pep2) (enzyme)
chain: not shown
notes: Maltokinase Pep2 of M. smegmatis (MSMEG_6514); 441 residues; cloned with primers from the start codon to the stop codon; also called Msm Pep2; MsPep2; source: E. coli BL21 (DE3), purified (Ni-NTA, HiTrap Q, Sephacryl S-300HR)
B2: Mycobacterium smegmatis maltokinase (Pep2) (enzyme)
chain: not shown
notes: Maltokinase Pep2 of M. smegmatis, locus MSMEG_6514, 441 residues, cloned from genomic DNA into NdeI/HindIII of pET28a; the printed primers run from the start codon to the stop codon; Monomer by size exclusion; calculated mass 48,800 Da; also called Msm Pep2; MsPep2; source: E. coli BL21 (DE3), purified (Ni-NTA, HiTrap Q, Sephacryl S-300HR)
B3: Mycobacterium smegmatis trehalose synthase (TreS) (enzyme, M. smegmatis, UniProt A0R6E0 1-593, looked up)
chain: T1 sequence (looked up)
notes: Trehalose synthase TreS of M. smegmatis, locus MSMEG_6515, cloned from genomic DNA into NdeI/HindIII of pET28a; the printed primers run from the start codon to the stop codon; calculated tetramer mass 272,000 Da; also called Msm TreS; MSMEG_6515; source: E. coli BL21 (DE3), purified (Ni-NTA, HiTrap Q, Sephacryl S-300HR)
B4: Mycobacterium tuberculosis trehalose synthase (TreS), wild type (enzyme)
chain: MNEAEHSVEHPPVQGSHVEGGVVEHPDAKDFGSAAALPADPTWFKHAVFYEVLVRAFFDASADGSGDLRGLIDRLDYLQWLGIDCIWLPPFYDSPLRDGGYDIRDFYKVLPEFGTVDDFVALVDAAHRRGIRIITDLVMNHTSESHPWFQESRRDPDGPYGDYYVWSDTSERYTDARIIFVDTEESNWSFDPVRRQFYWHRFFSHQPDLNYDNPAVQEAMIDVIRFWLGLGIDGFRLDAVPYLFEREGTNCENLPETHAFLKRVRKVVDDEFPGRVLLAEANQWPGDVVEYFGDPNTGGDECHMAFHFPLMPRIFMAVRRESRFPISEIIAQTPPIPDMAQWGIFLRNHDELTLEMVTDEERDYMYAEYAKDPRMKANVGIRRRLAPLLDNDRNQIELFTALLLSLPGSPVLYYGDEIGMGDVIWLGDRDGVRIPMQWTPDRNAGFSTANPGRLYLPPSQDPVYGYQAVNVEAQRDTSTSLLNFTRTMLAVRRRHPAFAVGAFQELGGSNPSVLAYVRQVAGDDGDTVLCVNNLSRFPQPIELDLQQWTNYTPVELTGHVEFPRIGQVPYLLTLPGHGFYWFQLTTHEVGAPPTCGGERRL
notes: also called Mtb TreS; WT Mtb TreS
B5: N-terminally truncated M. smegmatis Pep2 (Pep2-Δ70) (domain or fragment)
chain: not shown
notes: Maltokinase Pep2 of M. smegmatis (MSMEG_6514) with a 70-amino acid N-terminal truncation; the whole protein has 441 residues; The first residue 71 follows from the stated 70-residue truncation; also called Msm Pep2-Δ70; source: E. coli BL21 (DE3), purified (as WT Pep2, NaCl 300 mM before ion exchange)

Legend:
[1] = molecular target: T1, Mycobacterium smegmatis trehalose …; experiment: ITC; Pep2 titrated to 75 uM TreS in the sample chamber, up to a molar ratio [Pep2]/[TreS] of about 1.5; pH 6.5; 200 mM NaCl; 298 K; settings: both partners purified
[2] = molecular target: T1, Mycobacterium smegmatis trehalose …; experiment: ITC; Pep2 titrated to 75 uM TreS in the sample chamber, up to a molar ratio [Pep2]/[TreS] of about 1.5; pH 6.5; 300 mM NaCl; 298 K; settings: both partners purified
[3] = molecular target: T1, Mycobacterium smegmatis trehalose …; experiment: ITC; Pep2 titrated to 75 uM TreS in the sample chamber, up to a molar ratio [Pep2]/[TreS] of about 1.5; pH 6.5; 400 mM NaCl; 298 K; settings: both partners purified
[4] = molecular target: B3; experiment: ITC; Pep2 (500 μM in the syringe) titrated into TreS (75 μM monomer); 50 mM sodium phosphate pH 6.5, 300 mM NaCl, 10% glycerol, 25 °C; settings: both partners purified
[5] = molecular target: B3; experiment: ITC; Pep2 (500 μM in the syringe) titrated into TreS (75 μM monomer); 50 mM sodium phosphate pH 7.5, 300 mM NaCl, 10% glycerol, 25 °C; settings: both partners purified
[6] = molecular target: B3; experiment: ITC; Pep2 (500 μM in the syringe) titrated into TreS (75 μM monomer); 50 mM sodium phosphate pH 8.5, 300 mM NaCl, 10% glycerol, 25 °C; settings: both partners purified
[7] = molecular target: B3; experiment: crystal structure; vapor diffusion of mixtures of M. smegmatis TreS and Pep2 at molar ratios 1:1 to 1:2; 9-10% PEG 8000, 4% glycerol, 200 mM MgCl2, 0.1 M Tris-HCl pH 6.7-7.0; 3.6 Å; settings: both partners purified
[8] = molecular target: B3; experiment: AUC; sedimentation equilibrium, 50 mM sodium phosphate pH 6.5, 300 mM NaCl, 10% glycerol, 4 °C; 8000, 9000, 10,000 rpm; TreS alone at 6, 4, 2 μM, 1:1 mixture at 3.75, 2.5, 1.25 μM; single-species model; settings: both partners purified
[9] = molecular target: the molecule itself; experiment: as above
[10] = molecular target: T2, Mycobacterium tuberculosis maltokinase (Pep2) (M. tuberculosis, UniProt O07177); experiment: SEC; settings: both partners purified
T2 construct: also called Mtb Pep2; MtPep2

SEC = molecular target: the molecule itself; experiment: SEC
[11] = molecular target: B3; experiment: ITC; Pep2 (500 μM in the syringe) titrated into TreS (75 μM monomer); 50 mM sodium phosphate pH 6.5, 300 mM NaCl, 10% glycerol, 25 °C; settings: both partners purified; remark: listed apart in the source

## B1
[1]
  Ka: 210000 M⁻¹
  Kd: 4.8 µM
  stoichiometry N: 0.79 ± 0.015
[2]
  Ka: 222000 M⁻¹
  Kd: 4.5 µM
  stoichiometry N: 0.54 ± 0.01
[3]
  Ka: 210000 M⁻¹
  Kd: 4.8 µM
  stoichiometry N: 0.58 ± 0.01

## B2
[4]
  Ka: 287000 M⁻¹
  Kd: 3.48 µM
  dH: -131000 J/mol
  stoichiometry N: 0.574 ± 0.007
[5]
  Ka: 160000 M⁻¹
  Kd: 6.25 µM
  dH: -78400 J/mol
  stoichiometry N: 0.459 ± 0.008
[6]
  Ka: 28700 M⁻¹
  Kd: 34.8 µM
  dH: -93200 J/mol
  stoichiometry N: 0.22 ± 0.04
[7]
  stoichiometry N: 1 Pep2 per TreS protomer
[8]
  stoichiometry N: 2 copies of Pep2 per TreS tetramer

## B3
[9]
  stoichiometry N: 4

## B4
[10]
  binding result: binds
SEC
  stoichiometry N: 4

## B5
[11]
  Kd: 28.6 µM
[4]
  Ka: 35000 M⁻¹
  Kd: 26.8 µM
  dH: -74900 J/mol
  stoichiometry N: 0.681 ± 0.004
